{"source": "paper PMC3873461", "about": "“The CD8-Derived Chemokine XCL1/Lymphotactin Is a Conformation-Dependent, Broad-Spectrum Inhibitor of HIV-1” (PLoS Pathogens, 2013)", "target": "T1, purified YU2 gp120 protein (HIV-1 external envelope glycoprotein) (HIV-1 (strain YU2), UniProt P35961 32-498)", "T1 construct": "also called HIV-1 envelope glycoprotein gp120; source: purified", "experiment": "pull-down", "details": "both partners purified"}
{"binder": "recombinant wild type (WT) XCL1/lymphotactin (ligand, human, UniProt P47992 22-114, looked up, also called XCL1 WT) VGSEVSDKRTCVSLTTQRLPVSRIKTYTITEGSLRAVIFITKRGLKVCADPQATWVRDVVRSMDRKSNTRNNMIQTKPTGTQQSTNTAVTLTG", "values": [{"measurement": "binding result", "result": "binds"}]}
{"binder": "XCL1 W55D, variant that preferentially adopts the all-β, alternatively-folded dimeric structure (ligand, human, UniProt P47992 22-114, looked up) VGSEVSDKRTCVSLTTQRLPVSRIKTYTITEGSLRAVIFITKRGLKVCADPQATDVRDVVRSMDRKSNTRNNMIQTKPTGTQQSTNTAVTLTG", "values": [{"measurement": "binding result", "result": "binds"}]}
